Results as given in patent US8198236B2, “Methods and compositions for the treatment of cancer” (Washington University, priority 2007, dated 2012).

How the values were obtained:
[1] = tested on: LRP6; test: 125I-Mesd cell surface binding to LRP6-transduced HT1080 cells; set-up: species or system human; conditions: HT1080 cells transduced with vector alone
Procedure: (§1) To examine whether Mesd binds with high affinity to most members of the LDLR family at the cell surface, we performed cell surface ligand binding experiments with cells stably transduced with LRP6 cDNA. Human HT1080 cells, which express undetectable levels of LRP6, were transduced with a viral vector alone (pLNCX2) or with vector containing LRP6 cDNA (Li, Y., Oncogene 23: 9129-9135, 2004) and used for ^125I-Mesd binding (FIG. 1A). ^125I-Mesd (5 nM) reached maximal binding after 2 hours incubation at 4° C. with LRP6-expressing HT1080 cells (FIG. 1A).
(A) Time course of ^125I-Mesd (5 nM) binding to LRP6-transduced HT1080 cells and the control cells. Assay was carried out for the indicated periods at 4° C. in the absence (total) or presence of 500 nM Mesd (non-specific). (B) Saturation binding of ^125I-Mesd to LRP6-transduced HT1080 cells and the control cells. Assay was carried out at indicated concentrations for 3 hours at 4° C. in the absence (total) or presence (non-specific) of 500 nM Mesd. (C) Scatchard plots of data in B. All values are the average of triple determinations with the s.d. indicated by error bars.
(§2) Cells (2×10^5) were seeded into 12-well dishes 1 day prior to assay. Ligand-binding buffer (minimal Eagle's medium containing 0.6% BSA with a different concentration of radioligand, 0.6 ml/well) was added to cell monolayers, in the absence or the presence of 500 nM unlabeled RAP or 500 nM unlabeled Mesd, followed with incubation for 0-4 hours at 4° C. Thereafter, overlying buffer containing unbound ligand was removed, and cell monolayers were washed and lysed in low-SDS lysis buffer (62.5 mM Tris-HCl pH 6.8, 0.2% SDS, 10% v/glycerol) and counted.
To analyze the Mesd sequences that are required for Mesd to bind to mature LRP6 at the cell surface with high affinity, sequences were compared between mouse Mesd and its homologs from different species. […] We thus generated two truncated Mesd mutants lacking either the N-terminal region, MESD (12-195), or both the N-terminal and C-terminal regions, Mesd (12-155) (FIG. 3A). The ability of these mutants to bind to cell surface LRP6 was then assessed.
In this example, a truncated Mesd mutant containing the last 45 amino acids of C-terminal region was generated (FIG. 3A) and its binding affinity for LRP6 was then analyzed. […] (A) Binding analyses of ^125I-Mesd and its mutant Mesd (150-195) (5 nM) to LRP6-transduced HT1080 cells and control cells. (B) Binding analyses of ^125I-Mesd and its mutant Mesd (150-195) (5 nM) to LRP6-transduced HT1080 cells. Assays were carried out for 3 hours at 4° C. in the absence or presence of 500 nM Mesd or its mutant. Values are the means of triple determinations with the s.d. indicated by error bars.
LRP6-mediated Mesd uptake and degradation was investigated in the experiments illustrated in FIG. 7. (A) LRP6-mediated ^125I-Mesd (5 nM) degradation in LRP6-transduced HT1080 cells and control cells was carried out for 4 hours at 37° C. in the absence or presence of 500 nM Mesd. (B) ^125I-Mesd (5 nM) binding to LRP6-transduced HT1080 cells and the control cells was carried out for 4 hours at 4° C. in the absence or presence of 500 nM Mesd. Values are the means of triple determinations with the s.d. indicated by error bars.

[2] = target: T1, LRP6 (Homo sapiens, UniProt O75581); test: Competition for 125I-Mesd binding to cell surface LRP6
T1 construct: expressed in transfected cells; host or cells: human HT1080 cells, retroviral vector pLNCX2
T1 sequence (O75581 20-1613): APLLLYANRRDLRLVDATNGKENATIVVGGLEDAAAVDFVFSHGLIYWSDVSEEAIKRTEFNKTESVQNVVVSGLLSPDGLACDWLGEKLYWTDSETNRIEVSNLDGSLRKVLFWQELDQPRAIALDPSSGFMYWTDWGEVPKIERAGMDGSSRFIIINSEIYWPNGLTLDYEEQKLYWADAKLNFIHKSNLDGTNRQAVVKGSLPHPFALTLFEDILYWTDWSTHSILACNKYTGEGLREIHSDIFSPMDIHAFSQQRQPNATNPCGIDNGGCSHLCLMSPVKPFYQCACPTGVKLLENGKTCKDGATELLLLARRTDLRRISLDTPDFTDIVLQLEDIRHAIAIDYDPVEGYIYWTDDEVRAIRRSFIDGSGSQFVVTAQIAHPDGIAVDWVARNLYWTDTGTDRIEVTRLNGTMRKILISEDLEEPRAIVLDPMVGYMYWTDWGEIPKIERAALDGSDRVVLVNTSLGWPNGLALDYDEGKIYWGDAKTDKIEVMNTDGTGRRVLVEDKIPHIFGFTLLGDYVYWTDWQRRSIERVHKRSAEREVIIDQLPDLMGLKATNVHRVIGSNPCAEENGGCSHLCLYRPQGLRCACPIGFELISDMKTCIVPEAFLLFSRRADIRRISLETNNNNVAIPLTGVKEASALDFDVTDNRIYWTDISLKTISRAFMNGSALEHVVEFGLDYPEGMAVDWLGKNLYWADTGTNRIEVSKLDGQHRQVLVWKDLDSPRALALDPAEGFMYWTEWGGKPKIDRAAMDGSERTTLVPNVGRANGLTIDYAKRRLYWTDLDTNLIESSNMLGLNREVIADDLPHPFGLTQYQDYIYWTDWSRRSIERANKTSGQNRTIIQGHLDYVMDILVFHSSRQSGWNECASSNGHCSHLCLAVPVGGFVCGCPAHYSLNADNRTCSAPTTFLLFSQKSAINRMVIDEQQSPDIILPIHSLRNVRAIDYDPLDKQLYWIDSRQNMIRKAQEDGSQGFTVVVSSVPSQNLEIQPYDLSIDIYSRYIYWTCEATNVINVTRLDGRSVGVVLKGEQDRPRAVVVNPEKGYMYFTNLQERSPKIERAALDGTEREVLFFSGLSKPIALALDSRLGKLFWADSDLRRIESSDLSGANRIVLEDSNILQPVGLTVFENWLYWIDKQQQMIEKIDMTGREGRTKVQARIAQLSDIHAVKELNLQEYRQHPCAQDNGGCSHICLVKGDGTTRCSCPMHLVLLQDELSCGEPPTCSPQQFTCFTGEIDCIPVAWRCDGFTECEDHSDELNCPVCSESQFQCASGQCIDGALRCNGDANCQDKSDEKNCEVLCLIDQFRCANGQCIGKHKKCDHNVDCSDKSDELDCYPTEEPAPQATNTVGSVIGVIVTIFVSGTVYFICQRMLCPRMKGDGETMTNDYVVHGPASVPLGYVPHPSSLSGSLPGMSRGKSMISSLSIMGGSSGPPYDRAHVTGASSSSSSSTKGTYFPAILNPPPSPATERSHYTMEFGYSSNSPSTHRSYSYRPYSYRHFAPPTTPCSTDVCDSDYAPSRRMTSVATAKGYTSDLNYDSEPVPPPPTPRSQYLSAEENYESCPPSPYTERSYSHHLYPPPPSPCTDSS
Procedure: as §1, §2
We performed binding of 5 nM ^125I-Mesd (5 nM) to cell surface LRP6 in the presence of various concentrations of excess unlabeled RAP or 500 nM unlabeled Mesd (FIG. 8B). RAP inhibited ^125I-Mesd binding in a dose-dependent manner with ˜60% inhibition achieved with 500 nM RAP, whereas the same concentration of unlabeled Mesd inhibited >90% of ^125I-Mesd binding (FIG. 8B). […] The lower affinity of RAP to cell surface LRP6 may also contribute to its lower efficiency in inhibition of Mesd binding.
In FIG. 8A, binding of ^125I-RAP (5 nM) to LRP6-transduced HT1080 cells and the control cells was carried out for 4 hours at 4° C. in the absence (total) or presence of 500 nM RAP, or 500 nM Mesd. In FIG. 8B, binding of^125I-Mesd (5 nM) to LRP6-transduced HT1080 cells was carried out for 2 hours at 4° C. in the absence (total) or presence of various concentrations of RAP or 500 nM Mesd. (C) LRP6-mediated ^125I-Mesd (5 nM) degradation was carried out for 4 hours at 37° C. in the absence or presence of 500 nM Mesd or 500 nM RAP. Values are the means of triple determinations with the s.d. indicated by error bars.
In order to investigate the binding of Mesd polypeptide and an Mesd oligopeptide to either LRP5 or LRP6, binding assays were performed using ^125I-Mesd or ^125I-DKK1 (FIG. 10).

[3] = tested on: MMTV-Wnt1 tumors; test: MMTV-Wnt1 tumor transplant growth in nude mice; format: in vivo; conditions: i.p. every other day, first dose 15 mg/kg then 10 mg/kg, three weeks
Procedure: Recombinant Mesd protein was prepared as described (Li Y, et al. (2005) J Cell Sci 118(22): 5305-5314). Mesd peptide, […] (SEQ ID NO: 14), was manufactured by Abgent (San Diego). Female athymic nude mice (Taconic) (6-8 weeks old) were used for passaging tumors from MMTV-Wnt1 mice (Taconic). MMTV-Wnt1 tumors were serially passaged in mice by implantation in the mammary fat pad as described (DeAlmeida V, et al. (2007) Cancer Res 67, 5371-5379). Therapeutic agents (200 μL Mesd protein, Mesd peptide or PBS) were administrated i.p. with a first dose of 15 mg/kg, followed by 10 mg/kg (9 more doses). Three groups of mice were treated every other day for three weeks and tumor volumes were measured thrice weekly.
The pharmacokinetics and bioavailability of Mesd and Mesd peptide ([…] (SEQ ID NO: 14)) were first investigated (FIG. 23). Cells from MMTV-Wnt1 tumors were injected into the mammary fat pads of female nude mice, and the resultant mice were subsequently randomly grouped when the mean tumor volume reached ca. 200 mm^3. […]
In these experiments, mice bearing established MMTV-Wnt1 tumor transplants were divided into three groups (five animals per group) and were i.p. injected with PBS (vehicle), Mesd, or Mesd peptide every other day. Tumor volume was analyzed using caliper measurement. […]

B1: Mesd: Recombinant full-length mouse Mesd expressed in E. coli, N-terminal polyhistidine tail, lacking the signal peptide (protein)
chain: ADTPGEATPPPRKKKDIRDYNDADMARLLEQWEKDDDIEEGDLPEHKRPSAPIDFSKLDPGKPESILKMTKKGKTLMMFVTVSGNPTEKETEEITSLWQGSLFNANYDVQRFIVGSDRAIFMLRDGSYAWEIKDFLVSQDRCAEVTLEGQMYPGKGGGSKEKNKTKPEKAKKKEGDRKPRASKEDNRAGSRREDL
modifications: left off: small tags and cut ends
notes: Recombinant full-length mouse Mesd expressed in E. coli, N-terminal polyhistidine tail, lacking the signal peptide
With B1 the “125I-Mesd binding to control cells (pLNCX2)” value [1] was “No significant”, the “Inhibition of 125I-Mesd binding to cell surface LRP6” value ([2]; 500 nM unlabeled competitor, 125I-Mesd 5 nM, 2 hours at 4° C.) was greater than 90% and the “Effect of excess unlabeled protein on 125I-Mesd binding” value ([2]; 500 nM unlabeled, 125I-Mesd 5 nM, 4° C.) was “completely eliminated this binding”. The “Reduction of binding of 125I-Mesd to LRP6” value ([2]; FIG. 10C, compared with LRP5) was “even greater reduction” and the “Tumor growth (tumor volume, caliper)” value [3] was “significantly inhibit tumor growth”.
